Laboratory results: patent US20220218659

Target: T1, Human ACLY, His-tagged, bacterially expressed and purified recombinant full length protein, P53396
T1 chain: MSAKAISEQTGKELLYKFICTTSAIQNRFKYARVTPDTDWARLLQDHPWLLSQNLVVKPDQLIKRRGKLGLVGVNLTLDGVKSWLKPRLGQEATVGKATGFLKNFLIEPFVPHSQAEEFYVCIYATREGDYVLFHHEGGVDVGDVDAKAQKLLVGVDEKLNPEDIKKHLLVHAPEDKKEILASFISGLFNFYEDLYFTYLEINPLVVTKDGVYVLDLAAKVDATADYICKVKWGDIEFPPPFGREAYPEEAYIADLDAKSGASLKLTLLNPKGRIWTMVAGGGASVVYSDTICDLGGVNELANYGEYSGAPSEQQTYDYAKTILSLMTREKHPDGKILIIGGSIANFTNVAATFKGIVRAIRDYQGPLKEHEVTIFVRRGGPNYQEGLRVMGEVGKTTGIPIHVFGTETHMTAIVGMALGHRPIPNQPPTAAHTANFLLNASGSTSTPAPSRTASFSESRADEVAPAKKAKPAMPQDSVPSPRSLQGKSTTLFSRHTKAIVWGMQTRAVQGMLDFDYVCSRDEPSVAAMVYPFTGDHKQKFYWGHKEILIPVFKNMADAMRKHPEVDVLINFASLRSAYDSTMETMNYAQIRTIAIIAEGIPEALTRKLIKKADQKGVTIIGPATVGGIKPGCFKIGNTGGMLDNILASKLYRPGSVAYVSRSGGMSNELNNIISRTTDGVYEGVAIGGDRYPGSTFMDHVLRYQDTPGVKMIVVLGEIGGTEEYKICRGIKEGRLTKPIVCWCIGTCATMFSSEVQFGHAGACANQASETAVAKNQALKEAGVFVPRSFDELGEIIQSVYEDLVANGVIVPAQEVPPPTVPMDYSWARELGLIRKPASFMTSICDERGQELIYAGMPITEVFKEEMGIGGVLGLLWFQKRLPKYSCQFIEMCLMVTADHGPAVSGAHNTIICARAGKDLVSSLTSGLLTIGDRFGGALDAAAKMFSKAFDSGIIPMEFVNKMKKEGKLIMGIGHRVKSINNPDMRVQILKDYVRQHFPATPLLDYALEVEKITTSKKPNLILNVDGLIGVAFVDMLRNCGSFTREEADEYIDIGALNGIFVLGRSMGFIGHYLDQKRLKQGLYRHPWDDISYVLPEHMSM

B1: Active recombinant Lyn kinase (protein)
chain: MGCIKSKGKDSLSDDGVDLKTQPVRNTERTIYVRDPTSNKQQRPVPESQLLPGQRFQTKDPEEQGDIVVALYPYDGIHPDDLSFKKGEKMKVLEEHGEWWKAKSLLTKKEGFIPSNYVAKLNTLETEEWFFKDITRKDAERQLLAPGNSAGAFLIRESETLKGSFSLSVRDFDPVHGDVIKHYKIRSLDNGGYYISPRITFPCISDMIKHYQKQADGLCRRLEKACISPKPQKPWDKDAWEIPRESIKLVKRLGAGQFGEVWMGYYNNSTKVAVKTLKPGTMSVQAFLEEANLMKTLQHDKLVRLYAVVTREEPIYIITEYMAKGSLLDFLKSDEGGKVLLPKLIDFSAQIAEGMAYIERKNYIHRDLRAANVLVSESLMCKIADFGLARVIEDNEYTAREGAKFPIKWTAPEAINFGCFTIKSDVWSFGILLYEIVTYGKIPYPGRTNADVMTALSQGYRMPRVENCPDELYDIMKMCWKEKAEERPTFDYLQSVLDDFYTATEGQYQQQP
- ACLY tyrosine residues phosphorylated (phosphoproteomics): The three ACLY tyrosine residues, Y682, Y252, Y227, were common for Lyn and Src
- number of ACLY tyrosine residues phosphorylated (in vitro kinase assay, phosphoproteomics) (tyrosine residues): 6
